As usually defined, the IC50 is the point on the concentration scale where inhibition reaches its midpoint. Low values mean greater potency, high ones weaker potency.

We go through 6 molecules from PMC2760636 (The Journal of urology, 2009).

The subject of assay [1] is men with chronic prostatitis/chronic pelvic pain syndrome. The note with it: CP/CPPS; cited from earlier work.
For assay [2], the system named is CD4 lymphocytes. The following applies: CP/CPPS; cited from earlier work.
Assay [3] has as its system CD4 and CD8 T cells from men with GP. The note with it: men with granulomatous prostatitis; cited from earlier work.
Assay [4] deals with HLA-DR DRB1*1302 (human). Put plainly: radioligand binding.
The target of assay [5] is HLA-DR DRB1*0404 (human). Put plainly: radioligand binding.
Assay [6] has as its target HLA-DR DRB1*0901 (human). Briefly: radioligand binding.
The target in assay [7] is HLA-DR DRB1*0301 (human). Briefly: radioligand binding.
Assay [8] has as its target HLA-DR DRB5*0101 (human). Briefly: radioligand binding.
Assay [9] has as its target HLA-DR DRB4*0101 (human). Put plainly: radioligand binding.
Assay [10] deals with HLA-DR DRB1*1501 (human). Put plainly: radioligand binding.
The target in assay [11] is HLA-DR DRB1*0405 (human). Briefly: radioligand binding.
Assay [12] deals with HLA-DR DRB1*1101 (human). Briefly: radioligand binding.
In assay [13] the target is HLA-DR DRB1*0401 (human). Briefly: radioligand binding.
Assay [14] has as its target HLA-DR DRB1*0802 (human). Put plainly: radioligand binding.
The target in assay [15] is HLA-DR DRB1*0701 (human). Briefly: radioligand binding.
Assay [16] addresses HLA-DR DRB1*0101 (human). Briefly: radioligand binding.

`O=C(O)c1cn(C2CC2)c2cc(N3CCNCC3)c(F)cc2c1=O` [ciprofloxacin]: the “improvement of symptoms versus placebo (in words)” value in assay [1] is “no more effective than placebo at improving symptoms”.
For “PSA: prostate specific antigen, normal self prostatic protein”, the “recognition by CD4 lymphocytes (in words)” value in assay [2] is “can be recognized by CD4 lymphocytes”. The “recognition by CD4 and CD8 T cells in GP (in words)” value in [3] is “CD4 and CD8 T cells from men with GP can recognize PSA”.
PSA_(171-190) (peptide): the half-inhibitory concentration (IC50) in assay [4] was 997 nM; in assay [5], 219 nM; in [6], greater than 20000 nM; in assay [7], 961 nM; in [8] it was greater than 20000 nM; in assay [9] it was 880 nM. The concentration for half-maximal inhibition (IC50) in assay [10] is 351 nM; in assay [11], 719 nM; in assay [12] it was greater than 20000 nM; in assay [13], 117 nM.
As to PSA_(221-240) (peptide), the IC50 in assay [4] is greater than 20000 nM; in assay [5], 3.3 nM; in assay [6], 786 nM; in assay [14] it was 646 nM; in assay [7] it was greater than 20000 nM; in [15], 428 nM. Besides, the IC50 in assay [10] was 25 nM; in assay [11] it was 67 nM; in assay [16] it was 108 nM; in assay [13], 93 nM.
On to NPILLWQPIPVHTVPLSEDQ [PAP_(133-152)], for which the IC50 in assay [4] is 339 nM; in assay [5] it was 28 nM; in [7], greater than 20000 nM; in assay [9], 82 nM; in assay [10], 1.5 nM; in assay [11], 164 nM. For the same molecule, the IC50 in [16] amounted to 25 nM; in [12] it was 964 nM; in assay [13], 39 nM.
Take KSEEFQKRLHPYKDFIATLG [PAP_(173-192)]: the IC50 in assay [4] was greater than 20000 nM; in assay [5], 374 nM; in [6], 93 nM; in assay [7] it was greater than 20000 nM; in [8] it was 24 nM; in assay [15] it was 132 nM. The IC50 came to 4 nM in assay [10]; 211 nM in assay [11]; 25 nM in assay [16]; 28 nM in assay [12]; 296 nM in assay [13].
